In publication PMC7542444:

Target: His6-STLV-1 IN (6xHis-tagged STLV-1 MarB43 IN), wild type
Experiment: pull-down
Conditions: parent: est. 100; read off a plot

Question: With “LEDGF/ΔIBD-B56γ chimera (LEDGF residues 1-324 and B56γ residues 11-380), wild type (from UniProt O75475;Q13362) E78A; T81A; H82A” as the substance, how does the percent of parent (% of wild type) read?
Answer: The percent of parent (% of wild type) was 150.

Question: How did the percent of parent (% of wild type) turn out when “LEDGF/ΔIBD-B56γ chimera (LEDGF residues 1-324 and B56γ residues 11-380), wild type (from UniProt O75475;Q13362) R84A” was run?
Answer: Its percent of parent (% of wild type) is 140.

Question: How did the percent of parent (% of wild type) turn out when “LEDGF/ΔIBD-B56γ chimera (LEDGF residues 1-324 and B56γ residues 11-380), wild type (from UniProt O75475;Q13362) R143A” was run?
Answer: Its percent of parent (% of wild type) is 46.

Target: LEDGF/ΔIBD-B56γ chimera (LEDGF residues 1-324 and B56γ residues 11-380), wild type, O75475;Q13362
Experiment: pull-down
Conditions: parent: est. 100; read off a plot

Question: For “His6-STLV-1 IN (6xHis-tagged STLV-1 MarB43 IN), wild type E218A”, which percent of parent (% of wild type) is on record?
Answer: Its percent of parent (% of wild type) is 5.

Question: With “His6-STLV-1 IN (6xHis-tagged STLV-1 MarB43 IN), wild type H209A” as the substance, how does the percent of parent (% of wild type) read?
Answer: Its percent of parent (% of wild type) is 23.

Question: “His6-STLV-1 IN (6xHis-tagged STLV-1 MarB43 IN), wild type H209A; P211A” was tested. Which percent of parent (% of wild type) did it give?
Answer: The percent of parent (% of wild type) was 21.

Question: How did the percent of parent (% of wild type) turn out when “His6-STLV-1 IN (6xHis-tagged STLV-1 MarB43 IN), wild type I216A” was run?
Answer: Its percent of parent (% of wild type) is 1.

Question: Which percent of parent (% of wild type) does the source give for “His6-STLV-1 IN (6xHis-tagged STLV-1 MarB43 IN), wild type P214A” here?
Answer: The percent of parent (% of wild type) was 57.

Question: How did the percent of parent (% of wild type) turn out when “His6-STLV-1 IN (6xHis-tagged STLV-1 MarB43 IN), wild type P215A; P217A” was run?
Answer: Its percent of parent (% of wild type) is 15.
